Results as given in patent US20230265151A1, “GIP/GLP1 CO-AGONIST COMPOUNDS” (priority 2020, published 2023).
Changes are numbered by the printed parent chain. *1 amine or outer side, *2 acyl side, *3 side chain or, on linkers, in order; H or OH if unused. Where no end group is shown, it is not given here. Side-chain parts run from the residue outwards. [ ]: non-standard residue; d: D form. The star is where a group is joined. αMePhe(2-F) = C[C@](N)(Cc1ccccc1F)C(=O)O; γGlu = O=C(O)[C@H](CCC(=O)[*:2])N[*:1]; C14 diacid = O=C(O)CCCCCCCCCCCCC(=O)*; αMeY = C[C@](N)(Cc1ccc(O)cc1)C(=O)O; αMeL = CC(C)C[C@](C)(N)C(=O)O; Orn = NCCC[C@H](N)C(=O)O; AEEA = NCCOCCOCC(=O)O; Aib = CC(C)(N)C(=O)O

T1: human GIP receptor (human, UniProt P48546 22-466)
T1 sequence (looked up): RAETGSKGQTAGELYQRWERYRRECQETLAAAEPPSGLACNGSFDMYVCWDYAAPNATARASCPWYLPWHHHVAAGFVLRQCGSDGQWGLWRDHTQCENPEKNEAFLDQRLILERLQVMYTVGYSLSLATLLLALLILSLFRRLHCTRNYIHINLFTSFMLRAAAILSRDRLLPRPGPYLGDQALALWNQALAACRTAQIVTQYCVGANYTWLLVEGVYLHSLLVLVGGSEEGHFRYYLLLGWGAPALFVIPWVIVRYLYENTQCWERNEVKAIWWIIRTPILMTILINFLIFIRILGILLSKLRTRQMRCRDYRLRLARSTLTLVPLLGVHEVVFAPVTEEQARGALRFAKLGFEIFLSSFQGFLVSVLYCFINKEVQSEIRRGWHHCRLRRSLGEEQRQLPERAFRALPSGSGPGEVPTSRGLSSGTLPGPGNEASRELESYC

B1: Example 345 (peptide)
peptide: YXEGTXTSDXXIXLDXIAQXEFIKXLIKGGPSSGAPPPS
modifications: Y-Aib-EGT-αMeF(2F)-TSD-4Pal-Aib-I-αMeL-LD-Orn-IAQ-Aib-EFIK((2-[2-(2-Amino-ethoxy)-ethoxy]-acetyl)3-(γ-Glu)-(10-(4-carboxyphenoxy)decanoyl))-αMeY-LIK((2-[2-(2-Amino-ethoxy)-ethoxy]-acetyl)3-(γ-Glu)-(10-(4-carboxyphenoxy)decanoyl))GGPSSGAPPPS-NH2
B2: Example 291 (peptide)
peptide: YXEGTXTSDXSIXLDXKAQXEFIXXLIEGGPSSGAPPPSK
modifications: Y-Aib-EGT-αMeF(2F)-TSD-OMeY-SI-αMeL-LD-Orn-K((2-[2-(2-Amino-ethoxy)-ethoxy]-acetyl)2-(γ-Glu)-CO-(CH2)10-CH3)AQ-Aib-EFI-(D-Glu)-αMeY-LIEGGPSSGAPPPSK((2-[2-(2-Amino-ethoxy)-ethoxy]-acetyl)2-(γ-Glu)-CO-(CH2)10-CH3)-NH2
B3: Example 289 (peptide)
peptide: YXEGTXTSDXSIXLDXKAQXKFIXXLIEGGPSSGAPPPS
modifications: Y-Aib-EGT-αMeF(2F)-TSD-OMeY-SI-αMeL-LD-Orn-K((2-[2-(2-Amino-ethoxy)-ethoxy]-acetyl)2-(γ-Glu)-CO-(CH2)10-CH3)AQ-Aib-K((2-[2-(2-Amino-ethoxy)-ethoxy]-acetyl)2-(γ-Glu)-CO-(CH2)10-CH3)FI-(D-Glu)-αMeY-LIEGGPSSGAPPPS-NH2
B4: Example 310 (peptide)
peptide: B1 peptide with X11S
modifications: Y-Aib-EGT-αMeF(2F)-TSD-hTyr-SI-αMeL-LD-Orn-IAQ-Aib-EFIK((2-[2-(2-Amino-ethoxy)-ethoxy]-acetyl)2-(γ-Glu)-(10-(4-carboxyphenoxy)decanoyl))-αMeY-LIK((2-[2-(2-Amino-ethoxy)-ethoxy]-acetyl)2-(γ-Glu)-(10-(4-carboxyphenoxy)decanoyl))GGPSSGAPPPS-NH2
B5: Example 320 (peptide)
peptide: B3 peptide
modifications: Y-Aib-EGT-αMeF(2F)-TSD-hTyr-SI-αMeL-LD-Orn-K((2-[2-(2-Amino-ethoxy)-ethoxy]-acetyl)2-(y-Glu)-(10-(4-carboxyphenoxy)decanoyl))AQ-Aib-K((2-[2-(2-Amino-ethoxy)-ethoxy]-acetyl)2-(γ-Glu)-(10-(4-carboxyphenoxy)decanoyl))FI-(D-Glu)-αMeY-LIEGGPSSGAPPPS-NH2
B6: Example 327 (peptide)
peptide: B3 peptide with K21E, E28K
modifications: Y-Aib-EGT-αMeF(2F)-TSD-hTyr-SI-αMeL-LD-Orn-K((2-[2-(2-Amino-ethoxy)-ethoxy]-acetyl)2-(γ-Glu)-(10-(4-carboxyphenoxy)decanoyl))AQ-Aib-EFI-(D-Glu)-αMeY-LIK((2-[2-(2-Amino-ethoxy)-ethoxy]-acetyl)2-(γ-Glu)-(10-(4-carboxyphenoxy)decanoyl))GGPSSGAPPPS-NH2
B7: Example 335 (peptide)
peptide: B3 peptide with K21E, E28K
modifications: Y-Aib-EGT-αMeF(2F)-TSD-hTyr-SI-αMeL-LD-Orn-K((2-[2-(2-Amino-ethoxy)-ethoxy]-acetyl)2-(γ-Glu)-CO-(CH2)10-CH3)AQ-Aib-EFI-(D-Glu)-αMeY-LIK((2-[2-(2-Amino-ethoxy)-ethoxy]-acetyl)2-(γ-Glu)-CO-(CH2)10-CH3)GGPSSGAPPPS-NH2
B8: Example 332 (peptide)
peptide: B3 peptide with K17I, E28K
modifications: Y-Aib-EGT-αMeF(2F)-TSD-hTyr-SI-αMeL-LD-Orn-IAQ-Aib-K((2-[2-(2-Amino-ethoxy)-ethoxy]-acetyl)2-(γ-Glu)-(10-(4-carboxyphenoxy)decanoyl))FI-(D-Glu)-αMeY-LIK((2-[2-(2-Amino-ethoxy)-ethoxy]-acetyl)2-(γ-Glu)-(10-(4-carboxyphenoxy)decanoyl))GGPSSGAPPPS-NH2
B9: Example 323 (peptide)
peptide: B3 peptide
modifications: Y-Aib-EGT-αMeF(2F)-TSD-hTyr-SI-αMeL-LD-Orn-K((2-[2-(2-Amino-ethoxy)-ethoxy]-acetyl)2-(γ-Glu)-CO-(CH2)10-CH3)AQ-Aib-K((2-[2-(2-Amino-ethoxy)-ethoxy]-acetyl)2-(γ-Glu)-CO-(CH2)10-CH3)FI-(D-Glu)-αMeY-LIEGGPSSGAPPPS-NH2
B10: Example 328 (peptide)
peptide: B3 peptide with K21E, E28K
modifications: Y-Aib-EGT-αMeF(2F)-TSD-Nle-SI-αMeL-LD-Orn-K((2-[2-(2-Amino-ethoxy)-ethoxy]-acetyl)2-(γ-Glu)-(10-(4-carboxyphenoxy)decanoyl))AQ-Aib-EFI-(D-Glu)-αMeY-LIK((2-[2-(2-Amino-ethoxy)-ethoxy]-acetyl)2-(γ-Glu)-(10-(4-carboxyphenoxy)decanoyl))GGPSSGAPPPS-NH2
B11: Example 290 (peptide)
peptide: B3 peptide with K21E, E28K
modifications: Y-Aib-EGT-αMeF(2F)-TSD-OMeY-SI-αMeL-LD-Orn-K((2-[2-(2-Amino-ethoxy)-ethoxy]-acetyl)2-(γ-Glu)-CO-(CH2)10-CH3)AQ-Aib-EFI-(D-Glu)-αMeY-LIK((2-[2-(2-Amino-ethoxy)-ethoxy]-acetyl)2-(γ-Glu)-CO-(CH2)10-CH3)GGPSSGAPPPS-NH2
B12: Example 321 (peptide)
peptide: B3 peptide
modifications: Y-Aib-EGT-αMeF(2F)-TSD-Nle-SI-αMeL-LD-Orn-K((2-[2-(2-Amino-ethoxy)-ethoxy]-acetyl)2-(γ-Glu)-(10-(4-carboxyphenoxy)decanoyl))AQ-Aib-K((2-[2-(2-Amino-ethoxy)-ethoxy]-acetyl)2-(γ-Glu)-(10-(4-carboxyphenoxy)decanoyl))FI-(D-Glu)-αMeY-LIEGGPSSGAPPPS-NH2
B13: Example 317 (peptide)
peptide: Y[Aib]EGT[αMePhe(2-F)]TSDV[Aib]I[αMeL]LD[Orn]IAQ[Aib][Orn]FIK([AEEA-AEEA-γGlu-C14 diacid])[αMeY]LIK([AEEA-AEEA-γGlu-C14 diacid])GGPSSGAPPPS-NH2

What follows are binders tested against human GLP-1 receptor (human, UniProt P43220 24-463) (assay: cell-based or functional assay).

First: B1
Second: B2
The “cAMP EC50 (1.0% HSA)” value of the first is 1.6-fold higher: 11.8 nM for the first, 7.43 nM for the second.

First: B3
Second: B4
The “cAMP EC50 (1.0% HSA)” value of the first is 28-fold higher: 627 nM for the first, 22 nM for the second.

Going from B5 to B6, the “cAMP EC50 (1.0% HSA)” value rises from 6.22 nM to 13.6 nM (2.2-fold).

Going from B7 to B8, the “cAMP EC50 (1.0% HSA)” value rises from 12.3 nM to 33.3 nM (2.7-fold).

Going from B9 to B10, the “cAMP EC50 (1.0% HSA)” value rises from 9.52 nM to 23.3 nM (2.4-fold).

B11 and B12 are within 1.5-fold of each other in “cAMP EC50 (1.0% HSA)” value: 12.1 nM for the first, 13.9 nM for the second.

In the case of B13, the “cAMP EC50 (1.0% HSA)” value is reported as 29.5 nM.

First: B3
Second: B8
The “cAMP Emax (1.0% HSA)” value of the first is higher: 170% for the first, 116% for the second.

These binders were tested against T1, human GIP receptor (assay: cell-based or functional assay).

B1 and B2 are within 1.5-fold of each other in “cAMP EC50 (1.0% HSA)” value: 0.731 nM for the first, 0.833 nM for the second.

B3 and B4 are within 1.5-fold of each other in “cAMP EC50 (1.0% HSA)” value: 3.11 nM for the first, 2.4 nM for the second.

Compared with B5, B6 is 2.2-fold higher in “cAMP EC50 (1.0% HSA)” value: 0.338 nM for the first, 0.751 nM for the second.

Going from B7 to B8, the “cAMP EC50 (1.0% HSA)” value rises from 1.04 nM to 4.59 nM (4.4-fold).

B9 and B10 are within 1.5-fold of each other in “cAMP EC50 (1.0% HSA)” value: 0.694 nM for the first, 0.75 nM for the second.

B11 and B12 are within 1.5-fold of each other in “cAMP EC50 (1.0% HSA)” value: 0.878 nM for the first, 0.631 nM for the second.

B13 was tested, and the “cAMP EC50 (1.0% HSA)” value was 2.03 nM.

Going from B4 to B5, the “cAMP Emax (1.0% HSA)” value rises from 83.9% to 84.1%.

For B13, the “cAMP Emax (1.0% HSA)” value was 84.4%.

What follows are binders tested against human glucagon receptor (human, UniProt P47871 26-477) (assay: cell-based or functional assay).

B1 and B2 cannot be ordered by “cAMP EC50 (1.0% HSA)” value: > 9950 nM for the first, > 9950 nM for the second.

B3 and B4 cannot be ordered by “cAMP EC50 (1.0% HSA)” value: > 9950 nM for the first, > 9950 nM for the second.

B5 and B6 cannot be ordered by “cAMP EC50 (1.0% HSA)” value: > 9950 nM for the first, > 9950 nM for the second.

B7 and B8 cannot be ordered by “cAMP EC50 (1.0% HSA)” value: > 9950 nM for the first, > 9950 nM for the second.

B9 and B10 cannot be ordered by “cAMP EC50 (1.0% HSA)” value: > 9950 nM for the first, > 9950 nM for the second.

B11 and B12 cannot be ordered by “cAMP EC50 (1.0% HSA)” value: > 9950 nM for the first, > 9950 nM for the second.

B13 was tested, and the “cAMP EC50 (1.0% HSA)” value was > 9950 nM.
